This data set is described as follows: soluble on expression in E. coli; label from the status in PepcDB or PDB records.
As for “MPELPEVETTRRRLRPLVLGQTLRQVVHRDPARYRNTALAEGRRILEVDRRGKFLLFALEGGVELVAHLGMTGGFRLEPTPHTRAALVLEGRTLYFHDPRRFGRLFGVRRGDYREIPLLLRLGPEPLSEAFAFPGFFRGLKESARPLKALLLDQRLAAGVGNIYADEALFRARLSPFRPARSLTEEEARRLYRALREVLAEAVELGGSTLSDQSYRQPDGLPGGFQTRHAVYGREGLPCPACGRPVERRVVAGRGTHFCPTCQGEGP”, the “soluble on expression in E. coli” value was “soluble”. Next, “MATAAASVVSSETGDLRAYMAANPAAVIEEVAKQWNVSPHAVIAALPDGMARLGPGDGFVAAMNDIATWGEVTLIVHTEDAIFEFTGEVPRGEISRGYFNLMQPKGLHGHLRHDRCGALAFVERPFMGKASAFVAFLNRDGGIMFKVFVGRDANRELRADQLARFHALAKQFSEEHSALEHHHHHH”: “not soluble”. Then “MTHIIIDGDACPVVDSIIDLTTETGIFVTIIRSFSHFSNQLYPPHVSTLYVDDGPDAVDYKIVQLSTKDDIVVTQDYGLASLLVDKVLIVMHHNGKIYNSKNIQQLLDKRYINAQIRKQGGRHKGPPPFTKQDQKVFEQSLLKVIHRIKELDLEHHHHHH”, with “soluble”. Take “MSEDIFDAIIVGAGLAGSVAALVLAREGAQVLVIERGNSAGAKNVTGGRLYAHSLERIIPGFADQAPIERMITHEKLAFMTDNGAMTIDYCNGEDASASQVSYSVLRSKFDAWLMEQAEEAGAQLITGIRVDNVVQRDGKVVGVEADGDILEAKVVILADGVNSLLAEKLGMTKRVEASHVAVGVKELIELPKLVIEDRFQLQGNEGAACLFAGAPTDGLMGGGFLYTNETTLSLGLVCGLHHLKDAKKSVPQMLEDFKQHPAVAPLIAGGKLVEYAAHVVPEAGMNMQPELVGDGVLIAGDAAGMCMNLGFTIRGMDLAISAGEAAAKTVLSAMKRDDFSKQSLGEYRQHLDEGPMRDMRMYQKLPAFLDNPRMFTAYPEMAVNIARDLFTVDGSAPVPMRKKILRHAKKVGFINLMKDGLKGVTVL”: the “soluble on expression in E. coli” value is recorded as “not soluble”. Next, “SKDCIIQRYKDGDVNNIYTANRNEEITIEEYKVFVNEACHPYPVILPDRSVLSGDFTSAYADDDESC”: “soluble”; “MWKWETENDAKGVVVIAHNILEHTGRYAYVITMLRRNGYHVIMGDLPGQGQTSRAQKGQIDDFNTYHENILEWIKIANEYKIPTFVLGVGLGGLIILNLLEKTELPIEGILLFSPMLELKRDYKGRKNKLISNVGKISKDTRFKVGITPQDLTRNDEIIEETANDGLMLKKVTYSWYNLINEKMKETMDHIRDIKPISALIMYGTNDKILETQSINEMKDKLKSKEMYFKVWDGLYHEIHNEPERDLVMRYVLSFLNNSVNTMGFIVNEEEIEDI”: “not soluble”. Next, “MGSDKIHHHHHHMSLAVTYTRAMIGVQAPDVYIEVHISSGLPALTLVGLPETTVKEARDRVRSALINCGFTFPAKRITVNLAPADLPKEGGRYDLPIALAILAASEQIDGEKLNRYEFLGELGLSGTLRGVNGAIPAALEAIKAGRQLILPDDNKREMTLIPQGEALMAGHLLQVCAFLSGEEELLSCSDMTPVPQPAEDTLDLKDIIGQEQAKRALEIAAAGGHNLLLLGPPGTGKTMLASRLGNLMPPLSDEEALESAAINSLINIDATMTRWRARPFRAPHHSSSMAALVGGGSLPKPGEISLAHNGVLFLDELPEFERRVLDSLREPLESGEIIISRTRAKVCYPARVQLVAAMNPSPSGHYQGIHNRLPAQQILRYLSKLSGPFLDRFDLSIEVPLLPPGVLSQQHYQGESSATIRERVLIARQIQLKRANKINALLTSREIERHCKLEMADAAYLEDVMNKLGLSVRAWHRILKVARTIADLGDRDNIEKKHLAEALSYRCMDRLLIQLHKSLE”: “not soluble”; “MNVFYTREGVGDVLLVSLKPAADEERTFVRQGDVVRIMSERTGETVGYNIFSASSYYPFSGNGPLEVNEELVGVINDILAKNGFDEPIEADLSPKFVVGYVKEKTKHPNADKLSVCQVDVGGEVLQIVCGAPNVAEGQKVVVAKIGAVMPNGLVIQESELRGVRSSGMICSARELGLPNAPQEKGILVLSDEYEVGQPFVF”: “not soluble”. Consider “MHHHHHHSSGVDLGTENLYFQSMKICSIALVGKYTKLRDCYASVFKALEHSALAINHKLNLMYIDSIDLEKITETEDPVKFHEAWQKLCKADGILVPGGFGIRGTLGKLQAISWARTKKIPFLGVCLGMQLAVIEFARNCLNLKDADSTEFRPNAPVPLVIDMPEHNPGNLGGTMRLGIRRTVFKTENSILRKLYGDVPFIEERHRHRFEVNPNLIKQFEQNDLSFVGQDVDGDRMEIIELANHPYFVGVQFHPEFSSRPMKPSPPYLGLLLAATGNLNAYLQQGCKLS”, for which the “soluble on expression in E. coli” value is “soluble”.

As for “QLPSYRFNPNNHQSEQTLCVVCMCDFESRQLLRVLPCNHEFHAKCVDKWLKANRTCPICRAD”, the “soluble on expression in E. coli” value is “soluble”. Then “MEALRASYGDSSSDSDTDDLSPASPVTANSGEKDSISLPPPPLALLDSIVSTGSLDFFSTEPGVRVRNFPHVDGNYALHVYVPVCIPPLPKKEIVCFLKKVASVVPHLHLVEADVPLSILCKDDQKFERALGREFHISLGRNVPLRVHQINSVISMLRQKLQLQKRYLIDFNKWEVFVNDDHTRSFLSLEITTSGLSEISKQIDAVNEVYKLHNLPEFYKDPRPHISLVWALGDIRTSLKGAVDVELRKLRAGGCVQNRIFTSKFCGIECKIGNKTHKICKLPDE”, with “soluble”. In the case of “MSCMGAAVNIITTDGPAGRAGFTASAVCSVTDTPPTLLVCLNRGASVWPVFNENRTLCVNTLSAGQEPLSNLFGGKTPMEHRFAAARWQTGVTGCPQLEEALVSFDCRISQVVSVGTHDILFCAIEAIHRHTTPYGLVWFDRSYHALMRPAC”, the “soluble on expression in E. coli” value is recorded as “not soluble”. Next, “MSLIIKGALVWSGKEFVQKDLFVENGEFVEKSSEPVIDAKGYFLVPGFVDSHAHVVGTGFSKLSVQFNDWDELFERDLTSEVVVGRGWFEEPDGSVVERLDRIEAPVFLIRRCGHKAFLNKKAMEVLGVEERYLVENLEKIYEYVFKEKIAEFYRVGEEEFLKHGVTFVQSDDLYGVSVERLLSIIKHSRIRLFEKLKPKDLKPEHFGDLNKRVHVKGVKVFMDGSLGAKTALISGEYDDGTQGVQLLTEEKLEELARFCDEHDLILNVHAIGDSAVSLVLDVLERHRGHRIIHAQFVQEKDLQRVKNTTFSVQPHFFFEDQPLLKKVKVNALHYPFYRMFKAGVSISFSSDSPVSPCDPKYIAEHALKMGFSREETFYLMTEAGASQVGIKTGKIEAGYRADFCLYERNPLLFEDDPIAVFVEGEKIYEKNGSSHEGHHHHHH”: “soluble”; “MGSDKIHHHHHHMKLKTKTMEWSGNSLKLLDQRKLPFIEEYVECKTHEEVAHAIKEMIVRGAPAIGVAAAFGYVLGLRDYKTGSLTDWMKQVKETLARTRPTAVNLFWALNRMEKVFFENADRENLFEILENEALKMAYEDIEVNKAIGKNGAQLIKDGSTILTHCNAGALATVDYGTALGVIRAAVESGKRIRVFADETRPYLQGARLTAWELMKDGIEVYVITDNMAGWLMKRGLIDAVVVGADRIALNGDTANKIGTYSLAVLAKRNNIPFYVAAPVSTIDPTIRSGEEIPIEERRPEEVTHCGGNRIAPEGVKVLNPAFDVTENTLITAIITEKGVIRPPFEENIKKILEV”: “not soluble”. Next, “FRYDNTTPKTLRHVALLLEQGIETNDFYSGLHRRELKQTRLEGYILQHFSIIDGCVGVMKLTSELLAEYDVTANESAAFVNSFSDVE”: “soluble”; “MGSDKIHHHHHHMKKRFIYHDEKSNKFWWIDYEGDSLAVNYGKVGSIGKFQTKEFDNEEQCLKEASKLIAAKMKKGYQEDPKFNFMDRYYFDDEEIGLHVKTSHPNFQCHFTDPLYMCCWDEESPFGSDEGADALNVLENSLRKEPDLDCADFPQMLIETMWGMKYIAMDSILEEDVRAQLLVDEMSTIQSNMITYATAFGQIKVMGKISHKLKKMGLNALARHQLTAKILQWGDGQDSPILQKMIDDLTAFPHEN”: “not soluble”.

These data come from the DeepSol protein solubility set.
